Columns and labels:
Test in all cases: cell-based or functional assay
[1] = molecular target: HIV-1 Env of pseudovirus 1006_11_C3_1601 (HIV-1)
[2] = molecular target: HIV-1 Env of pseudovirus 1012_11_TC21_3257 (HIV-1)
[3] = molecular target: HIV-1 Env of pseudovirus 1056_10_TA11_1826 (HIV-1)
[4] = molecular target: HIV-1 Env of pseudovirus 249M B10 (HIV-1)
[5] = molecular target: HIV-1 Env of pseudovirus 62357_14_D3_4589 (HIV-1)
[6] = molecular target: HIV-1 Env of pseudovirus 6240_08_TA5_4622 (HIV-1)
[7] = molecular target: HIV-1 Env of pseudovirus 6244_13_B5_4576 (HIV-1)
[8] = molecular target: HIV-1 Env of pseudovirus 7030102001E5(Rev-) (HIV-1)
[9] = molecular target: HIV-1 Env of pseudovirus AC10.0.29 (HIV-1)
[10] = molecular target: HIV-1 Env of pseudovirus BF1266.431a (HIV-1)
[11] = molecular target: HIV-1 Env of pseudovirus CAP45.2.00.G3 (HIV-1)
[12] = molecular target: HIV-1 Env of pseudovirus CNE17 (HIV-1)
[13] = molecular target: HIV-1 Env of pseudovirus CNE53 (HIV-1)
[14] = molecular target: HIV-1 Env of pseudovirus CNE58 (HIV-1)
[15] = molecular target: HIV-1 Env of pseudovirus Ce0393_C3 (HIV-1)
[16] = molecular target: HIV-1 Env of pseudovirus Ce2010_F5 (HIV-1)
[17] = molecular target: HIV-1 Env of pseudovirus Ce2060_G9 (HIV-1)
[18] = molecular target: HIV-1 Env of pseudovirus Ce704809221_1B3 (HIV-1)
[19] = molecular target: HIV-1 Env of pseudovirus Du172.17 (HIV-1)
[20] = molecular target: HIV-1 Env of pseudovirus Du422.1 (HIV-1)
[21] = molecular target: HIV-1 Env of pseudovirus HIV-0013095-2.11 (HIV-1)
[22] = molecular target: HIV-1 Env of pseudovirus MS208.A1 (HIV-1)
[23] = molecular target: HIV-1 Env of pseudovirus Q259.d2.17 (HIV-1)
[24] = molecular target: HIV-1 Env of pseudovirus Q461.e2 (HIV-1)
[25] = molecular target: HIV-1 Env of pseudovirus Q842.d12 (HIV-1)
[26] = molecular target: HIV-1 Env of pseudovirus QH0692.42 (HIV-1)
[27] = molecular target: HIV-1 Env of pseudovirus RHPA4259.7 (HIV-1)
[28] = molecular target: HIV-1 Env of pseudovirus TRJO4551.58 (HIV-1)
[29] = molecular target: HIV-1 Env of pseudovirus WEAU_d15_410_787 (HIV-1)
[30] = molecular target: HIV-1 Env of pseudovirus ZM109F.PB4 (HIV-1)
[31] = molecular target: HIV-1 Env of pseudovirus ZM135M.PL10a (HIV-1)
[32] = molecular target: HIV-1 Env of pseudovirus ZM197M.PB7 (HIV-1)
[33] = molecular target: HIV-1 Env of pseudovirus ZM214M.PL15 (HIV-1)
[34] = molecular target: HIV-1 Env of pseudovirus ZM233M.PB6 (HIV-1)
[35] = molecular target: HIV-1 Env of pseudovirus ZM249M.PL1 (HIV-1)
[36] = molecular target: HIV-1 Env of pseudovirus ZM53M.PB12 (HIV-1)
[37] = molecular target: HIV-1 Env of pseudovirus CNE5 (HIV-1)
[38] = molecular target: HIV-1 Env of pseudovirus CNE8 (HIV-1)

8ANC195 (antibody)
IC50 [1]: 0.43 µg/mL
IC80 [1]: 1.98 µg/mL
IC50 [2]: > 50 µg/mL
IC80 [2]: > 50 µg/mL
IC50 [3]: > 50 µg/mL
IC80 [3]: > 50 µg/mL
IC50 [4]: > 50 µg/mL
IC80 [4]: > 50 µg/mL
IC50 [5]: > 50 µg/mL
IC80 [5]: > 50 µg/mL
IC50 [6]: > 50 µg/mL
IC80 [6]: > 50 µg/mL
IC50 [7]: > 50 µg/mL
IC80 [7]: > 50 µg/mL
IC50 [8]: 0.86 µg/mL
IC80 [8]: 8.32 µg/mL
IC50 [9]: 0.88 µg/mL
IC80 [9]: 7 µg/mL
IC50 [10]: > 50 µg/mL
IC80 [10]: > 50 µg/mL
IC50 [11]: 28.3 µg/mL
IC80 [11]: > 50 µg/mL
IC50 [12]: 2.59 µg/mL
IC80 [12]: 11.1 µg/mL
IC50 [13]: > 50 µg/mL
IC80 [13]: > 50 µg/mL
IC50 [14]: > 50 µg/mL
IC80 [14]: > 50 µg/mL
IC50 [15]: 6.77 µg/mL
IC80 [15]: > 50 µg/mL
IC50 [16]: > 50 µg/mL
IC80 [16]: > 50 µg/mL
IC50 [17]: 6.2 µg/mL
IC80 [17]: > 50 µg/mL
IC50 [18]: 0.48 µg/mL
IC80 [18]: 3.52 µg/mL
IC50 [19]: > 30 µg/mL
IC80 [19]: > 30 µg/mL
IC50 [20]: > 50 µg/mL
IC80 [20]: > 50 µg/mL
IC50 [21]: 0.32 µg/mL
IC80 [21]: 1.85 µg/mL
IC50 [22]: > 50 µg/mL
IC80 [22]: > 50 µg/mL
IC50 [23]: > 50 µg/mL
IC80 [23]: > 50 µg/mL
IC50 [24]: 0.63 µg/mL
IC80 [24]: 2.51 µg/mL
IC50 [25]: > 30 µg/mL
IC80 [25]: > 30 µg/mL
IC50 [26]: 2.71 µg/mL
IC80 [26]: 17.1 µg/mL
IC50 [27]: 0.34 µg/mL
IC80 [27]: 1.56 µg/mL
IC50 [28]: 0.19 µg/mL
IC80 [28]: 1.17 µg/mL
IC50 [29]: > 50 µg/mL
IC80 [29]: > 50 µg/mL
IC50 [30]: > 30 µg/mL
IC80 [30]: > 30 µg/mL
IC50 [31]: > 50 µg/mL
IC80 [31]: > 50 µg/mL
IC50 [32]: 23.4 µg/mL
IC80 [32]: > 50 µg/mL
IC50 [33]: 0.91 µg/mL
IC80 [33]: 12.3 µg/mL
IC50 [34]: 7.39 µg/mL
IC80 [34]: 43.5 µg/mL
IC50 [35]: > 50 µg/mL
IC80 [35]: > 50 µg/mL
IC50 [36]: > 30 µg/mL
IC80 [36]: > 30 µg/mL

NIH 45-46 (antibody)
IC50 [1]: 0.05 µg/mL
IC80 [1]: 0.31 µg/mL
IC50 [2]: 0.01 µg/mL
IC80 [2]: 0.04 µg/mL
IC50 [3]: 0.12 µg/mL
IC80 [3]: 0.59 µg/mL
IC50 [4]: 0.04 µg/mL
IC80 [4]: 0.17 µg/mL
IC50 [5]: 0.05 µg/mL
IC80 [5]: 0.22 µg/mL
IC50 [6]: 0.44 µg/mL
IC80 [6]: 1.55 µg/mL
IC50 [7]: 0.07 µg/mL
IC80 [7]: 0.26 µg/mL
IC50 [8]: 0.14 µg/mL
IC80 [8]: 0.63 µg/mL
IC50 [9]: 0.42 µg/mL
IC80 [9]: 1.49 µg/mL
IC50 [10]: 0.01 µg/mL
IC80 [10]: 0.03 µg/mL
IC50 [11]: > 50 µg/mL
IC80 [11]: > 50 µg/mL
IC50 [12]: 0.15 µg/mL
IC80 [12]: 0.55 µg/mL
IC50 [13]: 0.01 µg/mL
IC80 [13]: 0.04 µg/mL
IC50 [14]: 0.25 µg/mL
IC80 [14]: 1.49 µg/mL
IC50 [15]: 0.32 µg/mL
IC80 [15]: 1.07 µg/mL
IC50 [16]: 0.13 µg/mL
IC80 [16]: 0.43 µg/mL
IC50 [17]: 0.14 µg/mL
IC80 [17]: 0.48 µg/mL
IC50 [18]: 0.15 µg/mL
IC80 [18]: 0.88 µg/mL
IC50 [19]: > 30 µg/mL
IC80 [19]: > 30 µg/mL
IC50 [20]: > 50 µg/mL
IC80 [20]: > 50 µg/mL
IC50 [21]: 0.01 µg/mL
IC80 [21]: 0.03 µg/mL
IC50 [22]: 0.09 µg/mL
IC80 [22]: 0.6 µg/mL
IC50 [23]: 0.01 µg/mL
IC80 [23]: 0.06 µg/mL
IC50 [24]: 0.06 µg/mL
IC80 [24]: 0.32 µg/mL
IC50 [25]: 0.03 µg/mL
IC80 [25]: 0.03 µg/mL
IC50 [26]: 0.55 µg/mL
IC80 [26]: 1.56 µg/mL
IC50 [27]: < 0.05 µg/mL
IC80 [27]: < 0.05 µg/mL
IC50 [28]: 0.01 µg/mL
IC80 [28]: 0.05 µg/mL
IC50 [29]: 0.01 µg/mL
IC80 [29]: 0.03 µg/mL
IC50 [30]: 0.22 µg/mL
IC80 [30]: 0.22 µg/mL
IC50 [31]: 0.36 µg/mL
IC80 [31]: 3.11 µg/mL
IC50 [32]: 0.14 µg/mL
IC80 [32]: 0.64 µg/mL
IC50 [33]: 0.05 µg/mL
IC80 [33]: 0.39 µg/mL
IC50 [34]: 1.86 µg/mL
IC80 [34]: 16.5 µg/mL
IC50 [35]: 0.02 µg/mL
IC80 [35]: 0.06 µg/mL
IC50 [36]: 0.65 µg/mL
IC80 [36]: 0.65 µg/mL

10E8 (antibody)
IC50 neutralization (TZM.bl) [37]: 1.41 µg/mL
IC80 neutralization (TZM.bl) [37]: 9.64 µg/mL

N49P9.1 (antibody)
neutralization IC50 [37]: 0.183 µg/mL
neutralization IC80 [37]: 0.641 µg/mL
neutralization MPI [37]: 100
neutralization IC50 [38]: 0.228 µg/mL
neutralization IC80 [38]: 0.921 µg/mL
neutralization MPI [38]: 100

10-1074 (antibody)
IC50 neutralization (TZM.bl) [37]: > 50 µg/mL
IC80 neutralization (TZM.bl) [37]: > 50 µg/mL
IC50 neutralization (TZM.bl) [38]: > 50 µg/mL
IC80 neutralization (TZM.bl) [38]: > 50 µg/mL

— US20240117018A1
